From US20250353926A1 (ENLAZA THERAPEUTICS, published 2025)

Tests used:
[1] = biological target: T1, biotin-labeled CD16a (Acro P/N CDA-H82E8) (human, UniProt P08637 17-208, biotin-labeled (site not stated)); test: BLI, biotin-labeled CD16a on streptavidin biosensors, pH 7.4
T1 construct: also called recombinant human CD16a; immobilized CD16a

[2] = biological target: T2, PSMA expressed on target cells (PC3pip cells, high density; 22Rv1 cells, low density) (UniProt Q04609 1-750, limits assumed); test: cell-based or functional assay
[3] = biological target: T3, Biotinylated his-tagged human PSMA (human, UniProt Q04609 44-750, limits assumed, biotinylated (site not stated)); test: BLI, biotinylated his-tagged human PSMA on streptavidin sensors, pH 5.7
T3 construct: also called immobilized PSMA; not shown: his tag

[4] = biological target: T2, PSMA expressed on target cells (PC3pip …); test: cell-based or functional assay; remark: listed apart in the source
[5] = biological target: T2, PSMA expressed on target cells (PC3pip …); test: cell-based or functional assay; remark: listed apart in the source
[6] = biological target: T3, Biotinylated his-tagged human PSMA; test: BLI, biotinylated his-tagged human PSMA on streptavidin sensors, pH 7.4; covalent crosslinking; pH 7.4; apparent KD under covalent crosslinking
[7] = biological target: T2, PSMA expressed on target cells (PC3pip …); test: cell-based or functional assay; remark: listed apart in the source
[8] = biological target: T3, Biotinylated his-tagged human PSMA; test: BLI, biotinylated his-tagged human PSMA on streptavidin sensors, pH 7.4; covalent crosslinking
[9] = biological target: T2, PSMA expressed on target cells (PC3pip …); test: cell-based or functional assay; remark: listed apart in the source
[10] = biological target: T2, PSMA expressed on target cells (PC3pip …); test: cell-based or functional assay; remark: listed apart in the source
[11] = biological target: T3, Biotinylated his-tagged human PSMA; test: BLI, biotinylated his-tagged human PSMA on streptavidin sensors, pH 7.4; non 1:1 binding (covalent crosslinking); pH 7.4; non 1:1 binding (crosslinking to PSMA)
[12] = biological target: T2, PSMA expressed on target cells (PC3pip …); test: cell-based or functional assay; remark: listed apart in the source

T3 sequence (Q04609 44-750 limits assumed): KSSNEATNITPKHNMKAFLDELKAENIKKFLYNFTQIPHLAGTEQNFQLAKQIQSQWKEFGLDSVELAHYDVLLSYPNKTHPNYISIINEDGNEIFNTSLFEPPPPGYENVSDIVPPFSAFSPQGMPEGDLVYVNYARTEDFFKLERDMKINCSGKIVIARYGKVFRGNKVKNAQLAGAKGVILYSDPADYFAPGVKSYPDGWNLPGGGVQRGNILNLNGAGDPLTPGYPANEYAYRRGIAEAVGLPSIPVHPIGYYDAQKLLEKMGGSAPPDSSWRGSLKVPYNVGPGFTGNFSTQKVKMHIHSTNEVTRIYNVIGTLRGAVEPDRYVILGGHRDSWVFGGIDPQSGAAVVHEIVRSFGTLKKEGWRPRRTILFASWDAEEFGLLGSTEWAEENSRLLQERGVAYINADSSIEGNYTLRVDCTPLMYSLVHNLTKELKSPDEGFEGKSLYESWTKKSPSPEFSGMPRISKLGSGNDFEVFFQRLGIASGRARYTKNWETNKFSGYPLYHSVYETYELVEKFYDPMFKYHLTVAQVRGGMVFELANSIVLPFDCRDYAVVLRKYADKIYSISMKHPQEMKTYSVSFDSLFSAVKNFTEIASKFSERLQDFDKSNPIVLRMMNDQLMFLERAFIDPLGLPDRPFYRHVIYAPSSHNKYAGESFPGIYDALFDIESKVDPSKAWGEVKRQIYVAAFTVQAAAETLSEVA
T2 sequence (Q04609 whole entry): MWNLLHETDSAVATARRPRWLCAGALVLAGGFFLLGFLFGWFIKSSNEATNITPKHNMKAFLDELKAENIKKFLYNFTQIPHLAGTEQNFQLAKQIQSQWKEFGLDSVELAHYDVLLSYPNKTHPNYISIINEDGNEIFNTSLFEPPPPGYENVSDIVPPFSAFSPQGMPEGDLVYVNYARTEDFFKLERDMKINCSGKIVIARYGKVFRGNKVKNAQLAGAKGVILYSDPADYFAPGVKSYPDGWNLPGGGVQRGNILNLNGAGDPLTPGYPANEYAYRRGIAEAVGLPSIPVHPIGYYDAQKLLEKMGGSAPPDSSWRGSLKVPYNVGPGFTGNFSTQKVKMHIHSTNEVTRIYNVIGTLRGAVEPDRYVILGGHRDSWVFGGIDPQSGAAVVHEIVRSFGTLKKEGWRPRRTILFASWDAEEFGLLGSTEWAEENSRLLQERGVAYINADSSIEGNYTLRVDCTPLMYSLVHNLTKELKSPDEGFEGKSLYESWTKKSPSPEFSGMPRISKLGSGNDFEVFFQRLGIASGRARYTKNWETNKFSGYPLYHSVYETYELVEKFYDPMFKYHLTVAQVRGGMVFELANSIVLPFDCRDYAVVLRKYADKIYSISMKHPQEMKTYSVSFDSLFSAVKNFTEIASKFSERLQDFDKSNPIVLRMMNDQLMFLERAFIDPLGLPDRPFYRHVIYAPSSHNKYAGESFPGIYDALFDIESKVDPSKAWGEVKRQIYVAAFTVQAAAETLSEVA
T1 sequence (P08637 17-208 limits assumed): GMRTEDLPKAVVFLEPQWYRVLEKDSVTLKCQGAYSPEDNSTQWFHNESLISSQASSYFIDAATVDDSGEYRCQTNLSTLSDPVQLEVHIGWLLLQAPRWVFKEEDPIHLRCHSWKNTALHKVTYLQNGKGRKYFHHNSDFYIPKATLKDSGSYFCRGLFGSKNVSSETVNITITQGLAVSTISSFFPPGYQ

Kd [1]: 1.48 nM
koff [1]: 8.69e-05 s⁻¹
kon [1]: 58800 M⁻¹ s⁻¹
Kd [3]: ≤ 1140 nM
koff [3]: 0.0465 s⁻¹
kon [3]: 40700 M⁻¹ s⁻¹
EC50; ADCC luciferase reporter assay (Jurkat CD16a V158 reporter cells), PC3pip 24 h continuous [4]: 0.219 nM
Kd [6]: < 1 nM
EC50; ADCC reporter assay, PC3pip 4 h washout, 24 h endpoint [7]: 0.667 nM
koff [8]: < 1e-07 s⁻¹
EC50; ADCC reporter assay, 22Rv1 4 h washout, 24 h endpoint [10]: 3.19 nM
kon [11]: 12800 M⁻¹ s⁻¹
EC50; ADCC reporter assay, 22Rv1 24 h continual [12]: 0.54 nM
B1: C22 (C37-L3-C35) (bispecific antibody)
chain: EVQLVESGGGLVQPGESLTLSCVVAGSIFSFAMSWYRQAPGKERELVARIGSDDRVTYADSVKGRFTISRDNIKRTAGLQMNSLKPEDTAVYYCNAQTDLRDWTVREYWGQGTQVTVSSGGGGSGGGGSGGGGSGGGGSQVQLQESGGGSVEAGGSLRLSCARSGWPYSTYSMNWFRQAPGKEREAVAGISSTMSGIIFAESKAGQFTISQDNAKNTVYLQMNNLKPEDTAIYYCAARRXFSLSSSSDDFDYWGQGTQVTVSSAAAYPYDVPDYGSSPSTPPTPSPSTPPHHHHHH
modifications: FSY (fluorosulfonyltyrosine) at the position printed X in SEQ ID NO: 37 (position 101 of the anti-PSMA sdAb domain)
notes: anti-CD16a sdAb C37 - 4x(G4S) - anti-PSMA sdAb-FSY C35; entry holds HA tag, SP tag and His6; also called C22 (FSY); FSY-containing bispecific construct
EC50 [nM]; primary human NK cell-mediated killing of PC3pip cells, no washout, 20 h incubation [2]: 0.066 nM
fold potency against C25; NK cell-mediated killing of PC3pip cells, 5 hr incubation and washout [5]: 140 fold
fold potency against C25; NK cell-mediated killing of PC3pip cells, test article present throughout [5]: 106 fold
EC50 [nM]; NK cell-mediated killing of PC3pip cells, 5 h washout, 20 h incubation [9]: 0.188 nM
